Test results as given in the RNAGym collection of RNA variant scans (doi:10.1093/molbev/msab373).

B1: Azoarcus group I ribozyme (parent)
chain: GUGCCUUGCGCCGGGAAACCACGCAAGGGAUGGUGUCAAAUUCGGCGAAACCUAAGCGCCCGCCCGGGCGUAUGGCAACGCCGAGCCAAGCUUCGGCGCCUGCGCCGAUGAAGGUGUAGAGACUAGACGGCACCCACCUAAGGCAAACGCUAUGGUGAAGGCAUAGUCCAGGGAGUGGCGAAAGUCACACAAACCGG

Variants of: B1
Experiment: reverse-splicing fitness (ratio to wild type); higher = more active; in vitro selection; Mg2+ level not given
Procedure, shortened: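 An in vitro group I ribozyme library with randomized positions was T7-transcribed and gel-purified. In triplicate, 10 pmol RNA in EPPS pH 7.5 was reacted with 50 pmoles of a 30-nt RNA substrate for 1 h at 37 °C across several added MgCl2 levels (1–48 mM), then stopped with EDTA. Products were reverse transcribed from a substrate-complementary primer, PCR-amplified and sequenced (HiSeq 4000). Fitness is a variant's read proportion after selection over that before, normalised to wild type.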

Row | Variant | reverse-splicing fitness
1 | C82A A111G A120C C150U C169A U176A | 0.0187
2 | C82A A111G A120C C150U C169A U176G | 0.00635
3 | C82A A111G A120C C150U C169A U176C | 0.0154
4 | C82A A111C C150U C169A U176G | 0.00801
5 | C82A A111C C150U C169A U176C | 0.0125
6 | C82A A111C C150U C169A U176A | 0.0146
7 | C82A A111C C150U U176C | 0.0554
8 | C82A A111C C150U U176A | 0.036
9 | C82A A111C C150U U176G | 0.0134
10 | C82A A111G A120C A145U C150G U176C | 0.00993
11 | C82A A111G A120C A145U C150G U176A | 0.00605
12 | C82A A111G A120C A145U C150G U176G | 0.00395
13 | C82A A111G A120C A145G C150U C169G | 0.0101
14 | C82A A111G A120C A145G C150U C169U | 0.0147
15 | C82A A111G A120C A145G C150U C169A | 0.012
16 | C82A A111G A120C A145U C169U | 0.0135
17 | C82A A111G A120C A145U C169A | 0.00859
18 | C82A A111G A120C A145U C169G | 0.00967
19 | C82A A111C C169U | 0.0139
20 | C82A A111C C169G | 0.00911
21 | C82A A111C C169A | 0.00822

Row | Variant | reverse-splicing fitness
22 | C82A A111C C150U C169U | 0.0128
23 | C82A A111C C150U C169A | 0.0115
24 | C82A A111C C150U C169G | 0.00783
25 | C82A A111C A145U U176G | 0.0235
26 | C82A A111C A145U U176C | 0.0939
27 | C82A A111C A145U U176A | 0.073
28 | C82A A111G A120G A145C C150A C169A | 0.00942
29 | C82A A111G A120C A145C U176G | 0.00728
30 | C82A A111G A120C A145C U176C | 0.024
31 | C82A A111G A120C A145C U176A | 0.0165
32 | C82A A111C C150U | 0.113
33 | C82A A111C C150G | 0.016
34 | C82A A111C C150A | 0.0239
35 | C82A A111G A120C A145G | 0.0444
36 | C82A A111G A120C A145U | 0.0424
37 | C82A A111G A120C A145C | 0.0362
38 | C82A A111G A120C A145C C150G | 0.00968
39 | C82A A111G A120C A145C C150U | 0.0161
40 | C82A A111G A120C A145C C150A | 0.00953
41 | C82A A111G A120C A145U C150U U176A | 0.0145
42 | C82A A111G A120C A145U C150U U176C | 0.0248

Row | Variant | reverse-splicing fitness
43 | C82A A111G A120C A145U C150U U176G | 0.00709
44 | C82A A111G A120C A145G C150U C169G U176A | 0.0161
45 | C82A A111G A120C A145G C150U C169G U176G | 0.00629
46 | C82A A111G A120C A145G C150U C169G U176C | 0.0192
47 | C82A A111G A120C A145U C150U C169U U176C | 0.0124
48 | C82A A111G A120C A145U C150U C169U U176G | 0.00546
49 | C82A A111G A120C A145U C150U C169U U176A | 0.0144
50 | C82A A111C C150U C169G U176G | 0.00899
51 | C82A A111C C150U C169G U176C | 0.0175
52 | C82A A111C C150U C169G U176A | 0.013
53 | C82A A111G A120C A145U C150A C169A | 0.0111
54 | C82A A111G A120C A145U C150A C169G | 0.00948
55 | C82A A111G A120C A145U C150A C169U | 0.00961
56 | C82A A111C C150A U176C | 0.0285
57 | C82A A111C C150A U176G | 0.0104
58 | C82A A111C C150A U176A | 0.0165
59 | C82A A111G A120C A145G C169A U176G | 0.00562
60 | C82A A111G A120C A145G C169A U176C | 0.0269
61 | C82A A111G A120C A145G C169A U176A | 0.0226
62 | C82A A111G A120C A145C C150U C169A U176G | 0.00704
63 | C82A A111G A120C A145C C150U C169A U176A | 0.0199

Row | Variant | reverse-splicing fitness
64 | C82A A111G A120C A145C C150U C169A U176C | 0.00983
65 | C82A A111G A120C A145U C150A U176G | 0.00739
66 | C82A A111G A120C A145U C150A U176A | 0.012
67 | C82A A111G A120C A145U C150A U176C | 0.0198
68 | C82A A111G | 0.435
69 | C82A A111G A120C A145C C150G C169A U176C | 0.0108
70 | C82A A111G A120C A145C C150G C169A U176A | 0.00906
71 | C82A A111G A120C A145C C150G C169A U176G | 0.00545
72 | C82A A111G A120C C150G C169U U176C | 0.0107
73 | C82A A111G A120C C150G C169U U176G | 0.00651
74 | C82A A111G A120C C150G C169U U176A | 0.00701
75 | C82A A111C C150A C169U U176G | 0.0104
76 | C82A A111C C150A C169U U176C | 0.0182
77 | C82A A111C C150A C169U U176A | 0.0161
78 | C82A A111G A120G A145C | 0.0136
79 | C82A A111G A120C A145U C150G C169A U176A | 0.011
80 | C82A A111G A120C A145U C150G C169A U176C | 0.0114
81 | C82A A111G A120C A145U C150G C169A U176G | 0.00597
82 | C82A A111G A120C A145U C150A C169A U176G | 0.00712
83 | C82A A111G A120C A145U C150A C169A U176A | 0.0196
84 | C82A A111G A120C A145U C150A C169A U176C | 0.0134
